Here are results for 2 molecules from article PMC8795592, “Human Dermcidin Protects Mice Against Hepatic Ischemia-Reperfusion–Induced Local and Remote Inflammatory Injury” (Frontiers in Immunology, 2021).

As a reminder, the stoichiometry N is a count of units in the complex or per binding partner. One may read the Kd as the concentration at which binding is half-saturated.

Series [1] concerns the molecule itself. As to the kind of experiment: SDS-PAGE with and without DTT; purified recombinant His-tagged protein run on SDS-PAGE in the presence or absence of the reducing agent dithiothreitol; shows disulfide-linked (covalent) dimers only.
The target in series [2] is T1, recombinant EGFR corresponding to the extracellular domain (residue 25-645) (human, UniProt P00533 25-645).
T1 construct: epidermal growth factor receptor (EGFR), human, extracellular domain, residues 25-645; also called extracellular domain of human EGFR; epidermal growth factor receptor; source: bought: RayBiotech
As to the kind of experiment: SPR; Nicoya Lifesciences OpenSPR (gold nanoparticles); DCD or DCD-C34S with 6×His tag immobilised on NTA sensor chip; EGFR extracellular domain applied as analyte at three concentrations; KD by Trace Drawer Kinetic Data Analysis v.1.6.1. The following applies: both partners purified.

Series [3] addresses T1, recombinant EGFR corresponding to the …. As to the kind of experiment: SPR; Biacore T200; DCD immobilised on CM5 chip; EGFR extracellular domain applied as analyte at 5 concentrations; KD by Biacore evaluation software 2.0 supposing a 1:1 binding ratio. The following applies: both partners purified.

B1: recombinant human dermcidin (full-length DCD precursor, residue 20-110) with N-terminal 6×His tag (natural protein, UniProt P81605 20-110, looked up)
chain: YDPEAASAPGSGNPCHEASAAQKENAGEDPGLARQAPKPRKQRSSLLEKGLDGAKKAVGGLGKLGKDAVEDLESVGKGAVHDVKDVLDSVL
notes: dermcidin (DCD), human, residues 20-110, without the N-terminal 19-aa signal leader peptide (residue 1-19); one sentence of the methods says residue 20-100; Without a reducing agent the preparation is a mixture of monomers and disulfide-linked dimers (through Cys34); results and legends print 20-110; also called recombinant DCD; source: E. coli BL21 (DE3) pLysS, purified; Triton X-114 extraction …
Turning to B1, in series [1], the “stoichiometry N” value was 2. For the same molecule, the Kd was determined as 58.1 nM in series [2] and 58.8 nM in series [3].

B2: DCD-C34S analog (recombinant human dermcidin residue 20-110 with a Cys to Ser substitution at residue 34, N-terminal 6×His tag) (natural protein, UniProt P81605 20-110, looked up)
chain: YDPEAASAPGSGNPSHEASAAQKENAGEDPGLARQAPKPRKQRSSLLEKGLDGAKKAVGGLGKLGKDAVEDLESVGKGAVHDVKDVLDSVL
notes: dermcidin (DCD), human, residues 20-110 without the signal leader peptide, with C34S; Made by similar procedures as m1; source: E. coli BL21 (DE3) pLysS, purified to homogeneity; Triton X-114 extraction to remove endotoxins; not shown: His6, N-terminal, kept
Consider B2, for which the Kd in series [2] was 57.9 nM.
